T1: GST-Fas-IC fusion protein with a replacement at the lpr^eg mutation site (I225A) (Mus musculus, UniProt P25446, I246A)
T1 construct: GST fusion with Fas-IC containing a Ile to Ala replacement mutation at position 225; made in house; host or cells: E. coli
T1 sequence (P25446 187-327 I246A): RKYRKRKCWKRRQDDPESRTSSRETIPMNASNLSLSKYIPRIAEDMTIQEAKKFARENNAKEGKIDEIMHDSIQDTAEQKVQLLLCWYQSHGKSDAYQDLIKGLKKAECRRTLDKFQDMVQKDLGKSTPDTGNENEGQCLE

B1: MACHα1 (C360S): MACHα1 mutant in which the catalytic cysteine Cys360 is replaced by Ser (protein)
chain: MDFSRNLYDIGEQLDSEDLASLKFLSLDYIPQRKQEPIKDALMLFQRLQEKRMLEESNLSFLKELLFRINRLDLLITYLNTRKEEMERELQTPGRAQISAYRVMLYQISEEVSRSELRSFKFLLQEEISKCKLDDDMNLLDIFIEMEKRVILGEGKLDILKRVCAQINKSLLKIINDYEEFSKERSSSLEGSPDEFSNGEELCGVMTISDSPREQDSESQTLDKVYQMKSKPRGYCLIINNHNFAKAREKVPKLHSIRDRNGTHLDAGALTTTFEELHFEIKPHDDCTVEQIYEILKIYQLMDHSNMDCFICCILSHGDKGIIYGTDGQEAPIYELTSQFTGLKCPSLAGKPKVFFIQASQGDNYQKGIPVETDSEEQPYLEMDLSSPQTRYIPDEADFLLGMATVNNCVSYRNPAEGTWYIQSLCQSLRERCPRGDDILTILTEVNYEVSNKDDKKNMGKQMPQPTFTLRKKLVFPSD
B2: MORT-1: Mediator of Receptor-induced Toxicity; protein binding the intracellular domain of FAS-R, SEQ ID NO:2 (protein)
chain: VNQAPECRFGGGILGPLGKRRDLARASEPRTEGARRAGPQPRPLADPAMDPFLVLLHSVSSSLSSSELTELKFLCLGRVVKRKLERVQSGLDLFSMLLEQNDLEPGHTELLRELLASLRRHDLLRRVDDFEAGAAAGAAPGEEDLCAAFNVICDNVGKDWRRLARQLKVSDTKIDSIEDRYPRNLTERVRESLRIWKNTEKENATVAHLVGALRSCQMNLVADLVQEVQQARDLQNRSGAMSPMSWNSDASTSEAS

Legend:
[1] = system: Fas/APO1-induced death of HeLa cells; assay: Death of HeLa cells expressing Fas/APO1 induced by anti-Fas/APO1 antibody and cycloheximide; type: cell-based, human; details: HeLa cells transiently expressing Fas/APO1; CH11 0.5 μg/ml, cycloheximide 10 μg/ml
Procedure: In brief, 293-EBNA cells, MCF7 human breast carcinoma cells and HeLa HtTA-1 cells were grown in Dulbecco's modified Eagle's minimal essential medium supplemented with 10% fetal calf serum, nonessential amino acids, 100 U/ml penicillin and 100 μg/ml streptomycin. Cell tissue culture dishes (5×10^5 293-EBNA cells, 3×10^5 s MCF7 cells or 3×10^5 HeLa cells in 6-cm dishes) were transiently transfected, using the calcium phosphate precipitation method, with the cDNAs of the indicated proteins together with the β-galactosidase expression vector. In the experiments presented in FIGS. 14A-D and 15, each dish was transfected with 3.5 μg of the indicated MACH construct and 1.5 μg of pSV-β-gal. In the experiments presented in FIGS. 16A-D and 17-19, each dish was transfected with 2.5 μg of the indicated MACH or MORT1 construct (or, as control, empty vector) and 1.5 μg of pSV-β-gal. The cells were rinsed 6 to 10 h after transfection. The 293-EBNA and MCF7 cells were incubated for a further 18 h without additional treatment. The HeLa cells were incubated for 26 h after transfection and-then for 5 h in the presence of either anti-Fas.APO1 antibody (CH11, 0.5 μg/ml) or TNF (100 ng/ml), together with cycloheximide (10 μg/ml). The extent of cell death at the end of the incubation periods was assessed by determination of β-galactosidase expression, as described by Kumar et al, 1994.
The HeLa cells were made responsive to Fas/APO1 by transient expression of this receptor. […] These protective effects indicate that MACHα is a necessary component of both the Fas/APO1- and the p55-R-induced signaling cascades for cell death.
In particular, FIGS. 16A-D show morphology of 293-EBNA cells in which cell death was induced by transient expression of a chimera comprised of the extracellular domain of the p55-R (amino acids 1-168) fused to the transmembrane and intracellular domains of Fas/APO1 (amino acids 153-319) (p55-Fas chimera) (FIGS. 16A and 16B), or by expression of the p55-R (FIGS. 16C and 16D), and of cells that were protected from these cytotoxic effects by their simultaneous transfection with MACHα1 (C360S) (FIGS. 16B and 16D). Photographs were taken 26 h after transfection. FIG. 17 illustrates the quantification of death induced in 293-EBNA cells by their transfection with p55-Fas chimera or with p55-R, together with an empty vector, a MORT1 deletion mutant lacking the MACH-binding region (MORT1 (92-208)), or MACHα molecules containing a nonfunctional CED3/ICE region. […] Data are from at least two independent experiments and are expressed as in FIGS. 14A-F and 15.

[2] = target: T1, GST-Fas-IC fusion protein with a replacement at the lpr^eg mutation site (I225A); assay: In vitro binding to GST-Fas-IC with I225A replacement; details: [35S]-labeled protein from HeLa extracts; SDS-PAGE, autoradiography
Procedure: Glutathione S-transferase (GST) fusions with the wild type or a mutated Fas-IC were produced and adsorbed to glutathione-agarose beads; see Boldin et al, 1995; Ausubel et al, 1994; Frangioni and Neel, 1993). Binding of metabolically-labeled FLAG-MORT-1 fusion protein to GST-Fas-IC was assessed by incubating the beads for 2 h at 4° C. with extracts of HeLa cells, metabolically labeled with [^35S]methionine (60 μCi/ml), that express FLAG-MORT-1. The extracts were prepared in a buffer containing 50 mM Tris-HCl, pH 7.5, 150 mM NaCl, 0.1% NP-40; 1 mM dithioteitol, 1 mM EDTA, 1 mM phenylmethylsulfonyl fluoride, 20 μg/ml Aprotonin, […] Leupeptin, 10 mM-sodium fluoride and 0.1 mM sodium vanadate (1 ml per 5×10^5 cells).
Expression of MORT-1 molecules fused at their N terminus with the. FLAG octapeptide (FLAG-MORT-1) yielded in HeLa cells proteins of four distinct sizes—about […], 28, 32, and 34 kD. […] Thus, the in vitro interaction was evaluated by assessing, by autoradiography following SDS-PAGE, the binding of [35] metabolically labeled MORT-1, produced in transfected HeLa cells as a fusion with the FLAG octapeptide (FLAG-MORT-1), to GST, GST fusion with the human or mouse Fas-IC (GST-huFas-IC, GST-mFas-IC) or to GST fusion with Fas-IC containing a Ile to Ala replacement mutation at position 225.

Molecule	protection against death induced by anti-Fas/APO1 antibody and cycloheximide [1]	in vitro binding to GST-Fas-IC (I225A) [2]
B1	prevention	–
B2	–	did not bind
